The source of these data is patent publication US20030113743A1 (BAYLOR COLLEGE OF MEDICINE HYBRITECH, published 2003).

Test in all cases: covalent complex formation, SDS-PAGE and Western blot with HK1G586.1
For orientation: A western blot detects proteins with antibodies after separation by electrophoresis.

One assay concerns the target T1, alpha 2-antiplasmin (human, UniProt P08697 40-491, limits assumed).
T1 construct: Serpin, used at 20 µM; also called α2-antiplasmin; 1-antiplasmin
T1 sequence (looked up): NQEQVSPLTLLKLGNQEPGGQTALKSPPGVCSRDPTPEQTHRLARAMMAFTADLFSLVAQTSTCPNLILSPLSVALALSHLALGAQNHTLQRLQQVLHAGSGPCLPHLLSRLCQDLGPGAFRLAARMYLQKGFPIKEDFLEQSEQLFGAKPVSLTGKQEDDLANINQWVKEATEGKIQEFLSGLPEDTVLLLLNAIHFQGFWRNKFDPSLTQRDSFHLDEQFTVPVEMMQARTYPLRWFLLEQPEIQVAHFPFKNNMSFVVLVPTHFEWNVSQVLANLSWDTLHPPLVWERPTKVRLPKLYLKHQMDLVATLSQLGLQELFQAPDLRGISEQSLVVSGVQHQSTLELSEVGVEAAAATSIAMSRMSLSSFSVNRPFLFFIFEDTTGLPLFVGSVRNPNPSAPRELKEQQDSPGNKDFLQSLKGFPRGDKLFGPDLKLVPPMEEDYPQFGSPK
How it is done:
(§1) FIG. 18 depicts Western blot analysis of hK2 incubated with protease inhibitors. Each sample was separated on a 8-25% gradient SDS-PAGE, blotted and probed with HK1G586.1. hK2 was incubated for 4 hours at 37° C. with the following inhibitors: Lane 1, antichymotrypsin (ACT); lane 2, alpha 2-antiplasmin; lane 3, anti-thrombin III; lane 4, alpha 1-protease inhibitor (anti-trypsin); lane 5, alpha 2-macroglobulin; lanes 1 and 2 show a covalent complex of the predicted Mr of 90-100 kD. Serpin inhibitors were employed at 20 μM, macroglobulin at 2.8 μM, and hK2 at 0.175 μM.
(§2) To test for covalent complex formation, 0.175 μM hK2 was incubated with 20 μM of inhibitor at pH 8 in 100 mM borate buffer. Inhibitors tested were 1-antichymotrypsin, 1-antitrypsin, 1-antiplasmin, antithrombin and 2-macroglobulin. To 5 μl of hK2 (10 μg/ml) was added the calculated μg of inhibitor prepared in 100 mM borate buffer and, if needed, each sample brought up to a total volume of 10 μl. Samples were incubated for 3 hours at 37° C. whereupon 1.5 μl of 7 X PhastSystem SDS sample buffer containing 35% 2-mercaptoethanol was added and the sample boiled for 3 minutes in a water bath. Samples were diluted 1/4 in SDS sample buffer prior to application to SDS/PAGE and Western analyses.

Assay [1] concerns the target T2, α1-antitrypsin (alpha 1-protease inhibitor) (human, UniProt P01009 25-418).
T2 construct: Serpin, used at 20 µM
How it is done: as §1, §2

The next assay has as its target T3, antithrombin III (human, UniProt P01008 33-464).
T3 construct: Serpin, used at 20 µM
How it is done: as §1, §2

The target in the next assay is T4, antichymotrypsin (ACT) (human, UniProt P01011 24-423).
T4 construct: Serpin, used at 20 µM; also called 1-antichymotrypsin
T4 sequence (looked up): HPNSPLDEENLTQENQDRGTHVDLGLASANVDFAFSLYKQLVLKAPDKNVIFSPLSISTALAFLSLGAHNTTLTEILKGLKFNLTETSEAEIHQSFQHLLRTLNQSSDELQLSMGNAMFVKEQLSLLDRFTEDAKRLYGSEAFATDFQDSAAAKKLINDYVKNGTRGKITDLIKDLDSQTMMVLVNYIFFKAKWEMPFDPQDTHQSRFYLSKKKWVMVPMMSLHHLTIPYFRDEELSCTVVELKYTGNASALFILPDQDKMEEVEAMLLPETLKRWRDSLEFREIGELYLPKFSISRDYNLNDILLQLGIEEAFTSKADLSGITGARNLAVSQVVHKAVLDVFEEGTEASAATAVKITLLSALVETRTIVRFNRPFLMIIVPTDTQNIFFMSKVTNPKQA
How it is done:
as §1, §2

T2 sequence (P01009 25-418 limits assumed): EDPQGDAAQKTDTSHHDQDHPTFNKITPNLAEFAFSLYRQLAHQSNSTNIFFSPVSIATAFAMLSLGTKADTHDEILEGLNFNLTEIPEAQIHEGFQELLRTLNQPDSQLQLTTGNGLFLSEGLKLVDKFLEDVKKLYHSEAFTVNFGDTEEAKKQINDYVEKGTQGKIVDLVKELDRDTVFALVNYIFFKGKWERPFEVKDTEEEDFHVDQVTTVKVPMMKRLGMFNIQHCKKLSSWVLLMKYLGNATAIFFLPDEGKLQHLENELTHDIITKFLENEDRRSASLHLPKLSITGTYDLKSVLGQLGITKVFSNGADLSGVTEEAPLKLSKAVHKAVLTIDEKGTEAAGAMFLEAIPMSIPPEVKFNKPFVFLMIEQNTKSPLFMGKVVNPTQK
T3 sequence (P01008 33-464 limits assumed): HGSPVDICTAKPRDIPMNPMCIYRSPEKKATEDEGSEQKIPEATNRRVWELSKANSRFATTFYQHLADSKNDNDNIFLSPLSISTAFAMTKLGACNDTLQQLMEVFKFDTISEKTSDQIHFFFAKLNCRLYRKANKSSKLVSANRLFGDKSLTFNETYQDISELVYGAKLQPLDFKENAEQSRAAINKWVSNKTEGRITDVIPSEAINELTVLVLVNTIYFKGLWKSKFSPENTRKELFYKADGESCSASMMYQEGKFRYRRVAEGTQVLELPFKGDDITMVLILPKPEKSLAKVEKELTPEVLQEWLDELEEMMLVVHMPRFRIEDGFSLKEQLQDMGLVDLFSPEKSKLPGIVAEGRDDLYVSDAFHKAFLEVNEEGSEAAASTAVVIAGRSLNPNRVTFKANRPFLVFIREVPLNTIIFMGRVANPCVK

B1: wild type mature hK2 (prostate-specific glandular kallikrein protein) (enzyme)
chain: not shown
notes: From spent medium of AV12-hK2, PC3-hK2 and DU145-hK2 cells, LNCaP medium, seminal fluid or prostate tissue, depending on the experiment; also called native hK2
Consider B1, for which the binding result is given as “binds” in the assay with alpha 2-antiplasmin; “no binding (tested: 20 µM inhibitor, 0.175 µM hK2)” in assay [1]; “no binding (tested: 20 µM inhibitor, 0.175 µM hK2)” with antithrombin III; “binds” in the assay with antichymotrypsin (ACT).
